These results are taken from patent US20150239933A1.

pKd: −log10 of the molar value. Several values for one entry are separate records, joined by “and”; a condition that tells them apart may be missing. Equal values may be shown once.

Test [1] concerns the target assembled microtubules (containing ~25% of TUBB3) (porcine) (UniProt F1S6M7). Description: SPR Biacore T200, 60 sec injection of 100 nM over immobilised microtubules, reference-subtracted.
The target is the same in test [2]. Description: SPR Biacore T200, assembled MTs amine-coupled to CM5, gp120 3.13-100 nM as analyte, 1:1 model; one of two experiments. On the technique in general: Surface plasmon resonance follows binding to a sensor surface in real time, without labels.
The target of test [3] is Porcine tubulin dimer (porcine). Description: SPR Biacore T200, tubulin dimer immobilised, 1:1 model; mean of two experiments.
In test [4] the target is Human recombinant TUBB3 (human) (UniProt Q13509). Description: SPR Biacore T200, 60 sec injection of 100 nM over immobilised tubulin β-3, reference-subtracted.
Human recombinant TUBB3 (human), sequence (Q13509 whole entry): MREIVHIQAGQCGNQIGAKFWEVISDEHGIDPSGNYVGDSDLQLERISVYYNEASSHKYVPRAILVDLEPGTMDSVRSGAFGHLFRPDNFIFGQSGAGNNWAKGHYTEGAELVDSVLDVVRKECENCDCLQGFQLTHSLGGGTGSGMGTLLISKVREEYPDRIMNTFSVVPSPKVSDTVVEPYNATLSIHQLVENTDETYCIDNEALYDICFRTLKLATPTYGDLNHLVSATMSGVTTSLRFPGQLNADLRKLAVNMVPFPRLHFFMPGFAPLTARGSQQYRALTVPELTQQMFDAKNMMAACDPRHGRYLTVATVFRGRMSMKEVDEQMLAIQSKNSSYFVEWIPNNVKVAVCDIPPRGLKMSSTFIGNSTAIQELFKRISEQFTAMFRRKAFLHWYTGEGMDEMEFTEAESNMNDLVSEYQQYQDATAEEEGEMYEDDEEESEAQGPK
The target of test [5] is assembled microtubules (containing ~25% of TUBB3) (porcine) (UniProt F1S6M7). Description: SPR Biacore T200, assembled MTs immobilised, 1:1 model; mean of two experiments.
Test [6] deals with Porcine tubulin dimer (porcine). Description: SPR Biacore T200, 60 sec injection of 100 nM over immobilised tubulin dimer, reference-subtracted.
For test [7] the target is unchanged. Description: SPR Biacore T200, tubulin dimer amine-coupled to CM5, gp120 3.13-100 nM as analyte, 1:1 model; one of two experiments.
Test [8] concerns the target Human recombinant TUBB3 (human) (UniProt Q13509). Description: SPR Biacore T200, TUBB3 immobilised, 1:1 model; mean of two experiments.
For test [9] the target is unchanged. Description: SPR Biacore T200, TUBB3 amine-coupled to CM5, gp120 3.13-100 nM as analyte, 1:1 model; one of two experiments.

For gp120IIIB (from UniProt P04578 33-511), the response (4-1) RU in [1] was 15 RU and 23.2 RU and 19 RU. Besides, the negative-log Kd (pKd) in test [2] is 8.94 and 8.07; in test [3] it was 7.91; in test [5] it was 8.00; in test [7], 8.77 and 8.11. For the same substance, in test [4], the response (2-1) RU is 35 RU and 44 RU. The response (3-1) RU in test [6] is 14 RU and 18.6 RU and 21 RU.

Turning to gp120ADA, the pKd is 7.99 in test [8]; 8.25 and 8.74 in [2]; 7.95 in test [3]; 8.26 and 7.82 in test [9]; 7.92 in test [5]; 8.27 and 8.77 in [7].

As usually defined, the pKd is the Kd on a negative log10 scale, so that one unit is a factor of ten.
